B1: 27H3 chimeric antibody (antibody, human IgG4 S228P, kappa, F234A L235A, V domains shown)
VH: QVQLQQSGAELMKPGASVKISCKTTGYRFSSYWIEWVKQRPGHGLEWLGEILPGRGIINYNENFRGKATFTADTSSNTAYVQLSSLTSEDSAVYFCARTDPPYFGVWGAGTTVTVSS
VL: QAVVTQESALTTSPGETVTLTCRSSTGAVTISNYANWVQEKPDHLFTGLIGGTNNRPPGVPARFSGSLIGDKAALTITGAQTEDEAIYFCVLWYSNHWVFGGGTKLTVLR
notes: expressed in CHO cells
B2: 4H4 chimeric antibody (antibody, human IgG4 S228P, kappa, F234A L235A, V domains shown)
VH: EVQLQQSGPELVKPGASMKISCKASGYSFTGYTMNWVKQSHGKNLEWIGLINPYNGGTRYNQKFKGKATLTVDKSSSTAYMELLSLTSEDSAVYYCASSSYRNDGNWYFDVWGAGTTVTVSS
VL: DIVMTQSPAIMSASPGEKVTMTCSASSSVSYMHWYQQKSGTSPKRWIYDTSKLASGVPARFSGSGSGTSYSLTISSMETEDAATYYCQQWSSNPPTFGGGTKLELKR
notes: expressed in CHO cells
B3: 23E12 chimeric antibody (antibody, human IgG4 S228P, kappa, F234A L235A, V domains shown)
VH: QVQLQQSGAELVRPGTSVKISCKASGYAFTNYWLGWMKQRPGHGLEWIGDFYPRTGNTFYNENFKGKVTLTADKSSNTAYMQLSSLTSEDSAVYLCARAGTGFDYWGQGTTLTVSS
VL: SIVMTQSPKSMSMSVGERVTLSCKASENVGGYVSWYQQKPDQSPKLLIYGASSRHTGVPDRFTGSGSETDFTLTISSVQAEDLAAYHCGQNYIYPFTFGGGTKLEIKR
notes: expressed in CHO cells
B4: 21E5 chimeric antibody (antibody, human IgG4 S228P, kappa, F234A L235A, V domains shown)
VH: QVQLQQSGAELMKPGASMKISCKATGYTFSTYWIEWVKQRPGHGLEWIGENLPGRHITNYNEKFKGKATFTADTSSNTAYMQLSSLTSEDSAVYYCARGRGTYYFDYWGQGTPLTVSS
VL: DIVMTQAAFSTPVTLGTSASISCRSSQSLLHSNGITYLYWYLQKPGQSPQLLIYQMSNLASGVPDRFSSSGSGTDFTLRISRVEAEDVGVYYCAQNLEFPFTFGSGTKLEIKR
notes: expressed in CHO cells

molecular target: T1, TrkA protein on HEK-293T-TrkA cells or NIH-3T3-TrkA cells (human, UniProt P04629 33-796); experiment: cell-based or functional assay
T1 sequence (P04629 33-796): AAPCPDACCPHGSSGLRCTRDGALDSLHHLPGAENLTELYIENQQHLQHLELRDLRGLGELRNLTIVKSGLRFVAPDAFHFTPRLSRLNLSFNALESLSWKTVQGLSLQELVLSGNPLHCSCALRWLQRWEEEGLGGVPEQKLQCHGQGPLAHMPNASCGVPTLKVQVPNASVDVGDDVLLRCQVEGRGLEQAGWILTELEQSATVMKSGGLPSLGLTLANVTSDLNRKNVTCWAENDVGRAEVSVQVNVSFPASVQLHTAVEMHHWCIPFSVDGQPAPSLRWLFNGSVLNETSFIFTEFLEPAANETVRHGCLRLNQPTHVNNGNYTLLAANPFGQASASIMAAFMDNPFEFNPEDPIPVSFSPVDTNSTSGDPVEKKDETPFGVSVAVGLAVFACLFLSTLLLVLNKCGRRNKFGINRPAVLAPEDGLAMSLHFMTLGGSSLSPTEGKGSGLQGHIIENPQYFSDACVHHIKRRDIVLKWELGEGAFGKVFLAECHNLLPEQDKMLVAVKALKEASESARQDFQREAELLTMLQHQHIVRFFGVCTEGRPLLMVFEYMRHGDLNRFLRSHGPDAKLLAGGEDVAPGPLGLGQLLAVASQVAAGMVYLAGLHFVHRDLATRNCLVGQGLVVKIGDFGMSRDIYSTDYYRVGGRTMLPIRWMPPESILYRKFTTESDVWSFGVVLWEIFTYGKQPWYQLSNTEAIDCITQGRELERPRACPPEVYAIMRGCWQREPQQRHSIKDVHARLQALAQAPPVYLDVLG

| IC50; p-TrkA level by AlphaLISA in NGF-stimulated NIH3T3-TrkA stable cell line [µg/mL] | Binder |
| --- | --- |
| 0.0437 | B1 |
| 0.129 | B2 |
| 0.0537 | B3 |
| 0.0856 | B4 |

molecular target: T1, TrkA protein on HEK-293T-TrkA cells or …; experiment: flow cytometry on HEK-293T-TrKA cells
Description: (§1) In FIG. 7, the EC₅₀ (half-binding concentration) value reflects the affinity of the antibody. The smaller the EC₅₀ value, the higher the affinity of the antibody.

| EC50 [µg/mL] | Binder |
| --- | --- |
| < 1.5 | B1 |
| < 1.5 | B2 |
| < 1.5 | B3 |
| < 1.5 | B4 |

molecular target: T2, Mouse-TrKA receptor on the surface of HEK293T-Mouse-TrKA cells (mouse, UniProt Q3UFB7 34-799); experiment: flow cytometry on HEK293T-Mouse-TrKA cells
T2 construct: whole, on cells; also called Mouse-TrkA protein on HEK293T-Mouse-TrkA cells
Procedure: The test antibody 23E12 samples were diluted with PBS buffer to 11 concentration gradients (20 μg/mL, 10 μg/mL, 5 μg/mL, 2.5 μg/mL, 1.25 μg/mL, 0.625 μg/mL, 0.313 μg/mL, 0.156 μg/mL, 0.078 μg/mL, 0.039 μg/mL, 0.019 μg/mL), and the binding of the test antibody to the Mouse-TrKA receptor on the surface of HEK293T-Mouse-TrKA cells at each concentration gradient was detected by flow cytometry. The binding ability of the antibody to Mouse-TrKA protein was tested. In FIG. 10, the EC₅₀ (half the binding concentration) value reflects the binding capacity of the antibody. The smaller the EC₅₀ value, the stronger the binding capacity of the antibody. […] It can be seen that the test antibody 23E12 has a good binding ability with the Mouse-TrKA receptor on the surface of HEK293T-Mouse-TrKA cells.

T2 sequence (Q3UFB7 34-799): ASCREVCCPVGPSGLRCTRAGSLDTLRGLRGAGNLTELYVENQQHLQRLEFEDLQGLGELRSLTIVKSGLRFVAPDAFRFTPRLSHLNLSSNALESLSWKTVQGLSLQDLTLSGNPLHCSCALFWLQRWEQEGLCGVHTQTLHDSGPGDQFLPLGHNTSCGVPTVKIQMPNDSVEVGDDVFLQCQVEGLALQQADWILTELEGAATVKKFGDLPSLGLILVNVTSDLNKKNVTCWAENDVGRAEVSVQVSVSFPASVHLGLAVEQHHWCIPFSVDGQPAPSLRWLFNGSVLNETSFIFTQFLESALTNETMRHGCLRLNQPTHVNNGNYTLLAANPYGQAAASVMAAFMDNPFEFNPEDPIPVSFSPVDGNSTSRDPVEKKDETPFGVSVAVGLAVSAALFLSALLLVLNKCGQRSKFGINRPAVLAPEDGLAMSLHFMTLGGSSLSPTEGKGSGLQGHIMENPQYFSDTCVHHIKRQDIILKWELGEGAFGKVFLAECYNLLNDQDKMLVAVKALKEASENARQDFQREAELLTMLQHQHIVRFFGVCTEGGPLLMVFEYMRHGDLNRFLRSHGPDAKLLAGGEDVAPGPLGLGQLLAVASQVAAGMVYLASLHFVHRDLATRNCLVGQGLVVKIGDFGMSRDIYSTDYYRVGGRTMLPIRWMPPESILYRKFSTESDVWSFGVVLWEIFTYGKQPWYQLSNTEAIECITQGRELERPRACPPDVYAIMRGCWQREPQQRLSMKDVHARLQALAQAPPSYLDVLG

| EC50 [µg/mL] | Binder |
| --- | --- |
| 0.0801 | B3 |

molecular target: T3, TrKA receptor protein coated in ELISA (Examples 11 and 16) (human, UniProt P04629 33-423, limits assumed); experiment: ELISA plateau, antibody up to 20 µg/mL on TrKA
T3 construct: also called Human-TrKA
Procedure: The TrkA receptor family belongs to receptor tyrosine kinases (RTKs), including TrkA, TrkB, and TrkC, which have high homology. TrkA is a receptor tyrosine kinase of nerve growth factor (NGF) that selectively binds to NGF and is a functional receptor for NGF. In addition to the high-affinity receptor TrkA, NGF can also bind to its low-affinity receptor p75. In the test, the binding of test antibodies at different concentrations (20 μg/mL, 10 μg/mL, 5 μg/mL, 2.5 μg/mL, 1.25 μg/mL, 0.625 μg/mL, 0.313 μg/mL, 0.156 μg/mL, 0.078 μg/mL, 0.039 μg/mL, 0.019 μg/mL) to TrKA, TrKB, TrKC, and P75 respectively was detected by the ELISA method, and the specificity of the test antibody binding to the target TrKA was evaluated. In the FIG. 8, at a certain antibody concentration, the OD₄₅₀ value reflects the binding strength of the antibody to the protein. The larger the reading, the stronger the binding of the antibody to the protein. […] It can be seen that the specificity of the binding of the test antibodies to the target TrKA is very good.

T3 sequence (P04629 33-423 limits assumed): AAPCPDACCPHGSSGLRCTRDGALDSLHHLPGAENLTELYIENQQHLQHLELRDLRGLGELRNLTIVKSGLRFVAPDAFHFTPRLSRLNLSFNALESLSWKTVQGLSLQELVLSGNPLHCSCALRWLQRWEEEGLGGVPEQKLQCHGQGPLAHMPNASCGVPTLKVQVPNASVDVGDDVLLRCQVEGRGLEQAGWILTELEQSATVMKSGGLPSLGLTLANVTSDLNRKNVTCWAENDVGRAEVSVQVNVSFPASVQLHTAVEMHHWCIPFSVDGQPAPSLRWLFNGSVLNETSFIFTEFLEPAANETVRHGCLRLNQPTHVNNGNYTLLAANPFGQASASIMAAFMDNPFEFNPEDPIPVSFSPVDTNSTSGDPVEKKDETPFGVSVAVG

| OD450 [OD450] | Binder |
| --- | --- |
| ~3 | B1 |
| ~3 | B2 |
| ~3 | B3 |
| ~3 | B4 |

molecular target: T4, Mouse-TrKA protein (mouse, UniProt Q3UFB7 34-420, limits assumed); experiment: ELISA, antibody titrated on Mouse-TrKA protein, OD 450
T4 construct: also called Mouse-TrKA receptor
Procedure: Test antibody (23E12, 21E5) samples were diluted with PBS buffer solution to 11 concentration gradients (20 μg/mL, 10 μg/mL, 5 μg/mL, 2.5 μg/mL, 1.25 μg/mL, […], 0.313 μg/mL, 0.156 μg/mL, 0.078 μg/mL, 0.039 μg/mL, 0.019 μg/mL). The binding of the test antibody to the Mouse-TrKA receptor at each concentration gradient was detected by the ELISA method, thus the binding ability of the test antibody to the Mouse-TrKA protein was detected. In FIG. 9, at a certain antibody concentration, the OD₄₅₀ value reflects the binding strength of the antibody to the protein. The larger the reading, the stronger the binding of the antibody to the protein. […] It can be seen that the test antibodies 23E12, 21E5, and Mouse-TrKA protein all have good binding ability.

T4 sequence (Q3UFB7 34-420 limits assumed): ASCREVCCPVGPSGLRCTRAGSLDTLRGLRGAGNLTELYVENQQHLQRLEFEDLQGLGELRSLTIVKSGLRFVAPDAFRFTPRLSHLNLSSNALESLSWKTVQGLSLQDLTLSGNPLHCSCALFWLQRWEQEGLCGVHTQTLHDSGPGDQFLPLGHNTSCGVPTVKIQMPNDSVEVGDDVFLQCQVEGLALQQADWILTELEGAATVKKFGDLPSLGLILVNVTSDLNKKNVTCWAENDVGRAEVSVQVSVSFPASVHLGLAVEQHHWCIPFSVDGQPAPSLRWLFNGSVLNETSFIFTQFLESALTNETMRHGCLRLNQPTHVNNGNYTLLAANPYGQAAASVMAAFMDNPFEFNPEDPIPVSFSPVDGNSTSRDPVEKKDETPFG

| EC50 [µg/mL] | Binder |
| --- | --- |
| 0.0208 | B3 |
| 0.0954 | B4 |

molecular target: T1, TrkA protein on HEK-293T-TrkA cells or …; experiment: flow cytometry, antibody titrated on HEK-293T-TrKA cells, Parent %
Description: as §1

| EC50 [µg/mL] | Binder |
| --- | --- |
| 0.0447 | B1 |
| 0.211 | B2 |
| 0.0443 | B3 |
| 0.0575 | B4 |

molecular target: T5, TRKA protein with a histidine tag (human, UniProt P04629 33-423, limits assumed); experiment: BLI (Fortebio Octet RED96), His-tagged TRKA on Ni-NTA sensor, antibody 80-2.93 nM
T5 construct: it is put last here only for order; also called TRKA (50 µg/ml, 75 kDa, provided by HEC Labs); not shown: histidine tag
Procedure: They were added to each well of the sample plate. […] The KD value is the equilibrium dissociation constant between the antibody and its antigen, and the KD value is inversely proportional to the affinity. The KD value is related to the antibody concentration (the amount of antibody required for a particular experiment). The lower the KD value (the lower the concentration), the higher the affinity of the antibody. High-affinity antibodies are generally considered to be in the low nanomolar range (10⁻⁹).

T5 sequence (P04629 33-423 limits assumed): as the sequence (P04629 33-423 limits assumed) above

| Kd [nM] | koff [s⁻¹] | kon [M⁻¹ s⁻¹] | Binder |
| --- | --- | --- | --- |
| 0.178 | 0.000279 | 1.57e+06 | B1 |
| 1.68 | 0.000234 | 139000 | B2 |
| 0.057 | 0.000109 | 1.9e+06 | B3 |
| 0.173 | 0.000175 | 1.01e+06 | B4 |

molecular target: T2, Mouse-TrKA receptor on the surface of …; experiment: flow cytometry competition on HEK293T-Mouse-TrkA cells; competitor biotinylated Mouse-NGF
Procedure: Mouse-NGF was biotinylated. Mouse-NGF could bind to the extracellular region of Mouse-TrkA protein on HEK293 T-Mouse-TrkA cells, and anti-Mouse-TrkA monoclonal antibody could also bind to the extracellular region of Mouse-TrkA protein on HEK293T-Mouse-TrkA cells. A competitive experiment was designed to detect the binding of Mouse-NGF to the extracellular region of Mouse-TrkA protein on HEK293T-Mouse-TrkA cells under different concentrations (20 μg/mL, 10 μg/mL, 5 μg/mL, 2.5 μg/mL, 1.25 μg/mL, 0.625 μg/mL, 0.313 μg/mL, 0.156 μg/mL, 0.078 μg/mL, 0.039 μg/mL, 0.019 μg/mL) of test antibodies by flow cytometry, thus the inhibition effect of test antibodies on the binding of Mouse-NGF and Mouse-TrKA was investigated. In FIG. 12, the parent % value reflects the Mouse-NGF signal that binds to the extracellular region of the Mouse-TrKA protein on the HEK293T-Mouse-TrkA cell.

| IC50 [µg/mL] | Binder |
| --- | --- |
| 0.0515 | B3 |

molecular target: T3, TrKA receptor protein coated in ELISA …; experiment: competition ELISA: antibody titrated against biotinylated NGF binding to TrkA, OD450

| IC50 [µg/mL] | Binder |
| --- | --- |
| 0.11 | B1 |
| 0.551 | B2 |
| 0.213 | B3 |
| 0.294 | B4 |

molecular target: T1, TrkA protein on HEK-293T-TrkA cells or …; experiment: flow cytometry competition: antibody titrated against biotinylated NGF binding to HEK-293T-TrkA cells, % parent

| IC50 [µg/mL] | Binder |
| --- | --- |
| 0.369 | B1 |
| 2.04 | B2 |
| 0.426 | B3 |
| 0.547 | B4 |

Source: patent US20220204630A1 (SUNSHINE LAKE PHARMA, published 2022)
